Legend:
[1] = target: HTE20 mutant R360A (human) (UniProt P15502); experiment: ELISA; HTE truncates, HTE20 mutants or BSA coated (1 μM/well, 0.1 M NaHCO3 pH 9.4), blocked with 3% BSA in PBS; 5 μM GST tagged LigB4 or LigB12 applied 1 h at 37°C; HRP anti-GST; fold over BSA or percent of wild-type HTE20
[2] = target: HTE20 mutant Y371A (human) (UniProt P15502); experiment: as above
[3] = target: HTE20 (20th exon of human tropoelastin) (human) (UniProt P15502); experiment: as above
[4] = target: HTE17-20 (17th to 20th exon of human tropoelastin) (human); experiment: as above
Chain of HTE17-20 (17th to 20th exon of human tropoelastin) (human) (P15502 297-438): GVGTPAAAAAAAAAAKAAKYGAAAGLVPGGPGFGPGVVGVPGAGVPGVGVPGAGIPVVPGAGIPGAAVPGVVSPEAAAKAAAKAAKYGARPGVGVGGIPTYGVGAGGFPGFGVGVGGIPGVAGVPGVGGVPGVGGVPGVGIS

[5] = target: HTE20 mutant F381A (human) (UniProt P15502); experiment: as above
[6] = target: HTE20 mutant F378A (human) (UniProt P15502); experiment: as above
[7] = target: HTE19-20 (19th to 20th exon of human tropoelastin) (human); experiment: as above
[8] = target: HTE18 (18th exon of human tropoelastin) (human); experiment: as above
[9] = target: HTE20N (the first 27 residues of HTE20, amino acids 358–384 of HTE) (human) (UniProt P15502); experiment: ELISA; HTE17-20, HTE20, HTE20N, HTE20C or BSA coated (1 μM/well); GST tagged LigB4 or LigB12 titrated 0 to 10 μM, 1 h at 37°C; HRP anti-GST; KD from a saturation fit of OD630
Chain of HTE20N (the first 27 residues of HTE20, amino acids 358–384 of HTE) (human) (P15502 358-384): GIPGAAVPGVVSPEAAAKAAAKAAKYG

[10] = target: HTE25-27 (25th to 27th exon of human tropoelastin) (human); experiment: ELISA; HTE truncates, HTE20 mutants or BSA coated (1 μM/well, 0.1 M NaHCO3 pH 9.4), blocked with 3% BSA in PBS; 5 μM GST tagged LigB4 or LigB12 applied 1 h at 37°C; HRP anti-GST; fold over BSA or percent of wild-type HTE20
[11] = target: LigA on the surface of L. biflexa serovar Patoc ligA
[12] = target: tag free LigB12 (amino acids 1,047–1,119 in LigB) (L. interrogans serovar Pomona); experiment: SPR; Biacore 3000; tag free LigB12 immobilised on CM5 (about 1,000 RU); HTE truncates 0 to 5 μM injected in PBS at 30 μL/min, 25°C; 1:1 Langmuir model
[13] = target: LigB12-5-12 chimera (L. interrogans serovar Pomona); experiment: ELISA; tag-free LigB5/LigB12 and LigB7/LigB10 chimeras and wild-type domains coated (1 μM/well); 5 μM histidine tagged HTE17-20, HTE20 or HTE20N applied; anti-His detection
[14] = target: LigB12-12-5 chimera (L. interrogans serovar Pomona); experiment: as above
[15] = target: histidine tagged HTE20 (UniProt P15502); experiment: ELISA; conditions: 10 µM His-HTE20 applied to wells coated with LigB12 construct (1 µM/well); detected by anti-His antibodies; parent: est. 0.73; read off a plot
Chain of histidine tagged HTE20 (P15502 whole entry, looked up): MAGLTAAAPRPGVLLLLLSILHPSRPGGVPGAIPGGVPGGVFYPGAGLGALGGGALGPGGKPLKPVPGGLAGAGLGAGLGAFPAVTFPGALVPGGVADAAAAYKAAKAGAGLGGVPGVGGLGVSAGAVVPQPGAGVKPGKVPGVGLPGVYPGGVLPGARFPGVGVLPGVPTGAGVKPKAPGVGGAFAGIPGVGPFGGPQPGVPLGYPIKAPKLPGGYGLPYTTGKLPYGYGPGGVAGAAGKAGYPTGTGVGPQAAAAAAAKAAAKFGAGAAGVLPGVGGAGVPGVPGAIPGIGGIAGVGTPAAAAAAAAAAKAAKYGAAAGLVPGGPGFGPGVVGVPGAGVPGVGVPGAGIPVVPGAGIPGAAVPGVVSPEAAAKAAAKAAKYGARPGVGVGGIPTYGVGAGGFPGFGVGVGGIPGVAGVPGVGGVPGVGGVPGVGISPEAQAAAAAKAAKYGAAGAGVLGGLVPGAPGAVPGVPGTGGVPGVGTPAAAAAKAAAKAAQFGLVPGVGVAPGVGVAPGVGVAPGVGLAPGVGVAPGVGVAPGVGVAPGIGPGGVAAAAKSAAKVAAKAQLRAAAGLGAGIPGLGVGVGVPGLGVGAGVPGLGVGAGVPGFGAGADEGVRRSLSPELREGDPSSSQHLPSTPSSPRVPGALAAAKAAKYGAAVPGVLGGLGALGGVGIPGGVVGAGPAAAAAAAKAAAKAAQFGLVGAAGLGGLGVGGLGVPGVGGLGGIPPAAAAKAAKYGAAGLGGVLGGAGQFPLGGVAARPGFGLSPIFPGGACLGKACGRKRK

[16] = target: histidine tagged HTE20N (UniProt P15502); experiment: ELISA; conditions: 10 µM His-HTE20N applied to wells coated with LigB12 construct (1 µM/well); detected by anti-His antibodies; parent: est. 1.05; read off a plot
Chain of histidine tagged HTE20N (P15502 whole entry, looked up): as above

Chain of HTE20 (20th exon of human tropoelastin) (human) (P15502 358-412): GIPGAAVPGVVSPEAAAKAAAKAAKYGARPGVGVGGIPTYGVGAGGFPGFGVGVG

GST tagged LigB4 (amino acids 307–403 in LigB) (domain or fragment)
percent of wild-type HTE20 binding [1]: 32% | percent decrease of binding against wild-type HTE20 [2]: 61% | fold binding over BSA (negative control) [3]: 4.4 fold | fold binding over BSA (negative control) [4]: 5.7 fold | percent decrease of binding against wild-type HTE20 [5]: 54% | percent of wild-type HTE20 binding [6]: 35% | fold binding over BSA (negative control) [7]: 4.5 fold | fold binding over BSA (negative control) [8]: 2 fold | Kd [9]: 860 nM

GST tagged LigB12 (amino acids 1,047–1,119 in LigB) (domain or fragment)
percent decrease of binding against wild-type HTE20 [1]: 54% | fold binding over BSA (negative control) [10]: 3 fold | percent of wild-type HTE20 binding [2]: 35% | fold binding over BSA (negative control) [3]: 4.4 fold | fold binding over BSA (negative control) [4]: 5.7 fold | percent of wild-type HTE20 binding [5]: 35% | percent decrease of binding against wild-type HTE20 [6]: 62% | fold binding over BSA (negative control) [7]: 4.5 fold | fold binding over BSA (negative control) [8]: 2 fold | Kd [9]: 860 nM

HTE17-20 (17th to 20th exon of human tropoelastin) (domain or fragment)
inhibition of the adhesion of LigA-expressing L. biflexa (Patoc ligA) to WI-38 cells after pre-incubation with HTE17-20, 10 to 0.156 μM; ELISA with hamster anti-L. biflexa sera [11]: 61%

HTE19-20 (19th to 20th exon of human tropoelastin) (domain or fragment)
Kd [12]: 1340 nM | koff [12]: 0.0043 s⁻¹ | kon [12]: 3100 M⁻¹ s⁻¹

histidine tagged HTE17-20 (domain or fragment)
percent of wild-type LigB12 binding [13]: 80% | percent of wild-type LigB12 binding [14]: 90%

tag free LigB12 (amino acids 1,047–1,119 in LigB) A1065K
response [15]: 0.11 OD630 | response [16]: 0.09 OD630

Source: paper PMC5422739
